Data on eight proteins can be found in paper PMC9741242, “Insights into the Structure of the Highly Glycosylated Ffase from Rhodotorula dairenensis Enhance Its Biotechnological Potential” (International Journal of Molecular Sciences, 2022).

The labels stand for the following.
B1: RdINV (Rhodotorula dairenensis; A213W/Q216L) (protein)
chain: APAASSLAGPVTTGVFSAVSAIPSFATNLSGQVASATSTVLSGSTASGSSATAAPSASASGASSMQSMASSLSGSAFSPSSMMPIASGNMTMPNMTSSASASSAASTATGVAGGAGSNSSSSCAPTSLPASATELPTTVPTGTVITGDYTGSYRPQVHYSPPKGFMNDPNGCHRDRNGTYHLYYQYNPLEYVWGNLHWGHATSDDLYHWTNQPIAIFPPNSTSQVFSGSAVLDPNNTSGFFPNTTDGVVAVYTLNTPTLQVQEVAYSTDGGYNFTPYENNPVLSVGSNQFRDPKVFWYEDHWVMAVAAANDFTIEIYTSPNLTSWTFASNFTHHGLLGLAYECPNLVQVPFQDDPSKSAWLMYISINPGAPLGGSVGQYFPGDFNGTHFVAYDSAARIADFAKDNYASQWFADTENGESISIAWASNWQYTQQVPTSAQAFRSAMSLPRRNYLTNITRLGWDLVSLPYDLSPVVGPSLLSSSEANSTADVDFTNVTSNAVWFSLNVTLPDAAIQNASLISADASINITFLPSTKCSSSSGSGSDSPAATLTYFYAGLTNGALALTRPAASSSWGAENPFFTDKFSYTLVDPLTSLVGVFDRSMLEVFVNEGAHSATMLVFPDSPVGSMKVATGGLPEGTQVNLQVNGLESTWQSS
notes: full-length RdINV, 675 residues, S. cerevisiae MFalpha secretion signal in pIB4, secreted by Komagataella phaffii; highly N- and O-glycosylated, ~170 kDa; homodimer
B2: RdINV (Rhodotorula dairenensis; A213W) (protein)
chain: APAASSLAGPVTTGVFSAVSAIPSFATNLSGQVASATSTVLSGSTASGSSATAAPSASASGASSMQSMASSLSGSAFSPSSMMPIASGNMTMPNMTSSASASSAASTATGVAGGAGSNSSSSCAPTSLPASATELPTTVPTGTVITGDYTGSYRPQVHYSPPKGFMNDPNGCHRDRNGTYHLYYQYNPLEYVWGNQHWGHATSDDLYHWTNQPIAIFPPNSTSQVFSGSAVLDPNNTSGFFPNTTDGVVAVYTLNTPTLQVQEVAYSTDGGYNFTPYENNPVLSVGSNQFRDPKVFWYEDHWVMAVAAANDFTIEIYTSPNLTSWTFASNFTHHGLLGLAYECPNLVQVPFQDDPSKSAWLMYISINPGAPLGGSVGQYFPGDFNGTHFVAYDSAARIADFAKDNYASQWFADTENGESISIAWASNWQYTQQVPTSAQAFRSAMSLPRRNYLTNITRLGWDLVSLPYDLSPVVGPSLLSSSEANSTADVDFTNVTSNAVWFSLNVTLPDAAIQNASLISADASINITFLPSTKCSSSSGSGSDSPAATLTYFYAGLTNGALALTRPAASSSWGAENPFFTDKFSYTLVDPLTSLVGVFDRSMLEVFVNEGAHSATMLVFPDSPVGSMKVATGGLPEGTQVNLQVNGLESTWQSS
notes: as for B1
B3: RdINV (Rhodotorula dairenensis; A360Q) (protein)
chain: APAASSLAGPVTTGVFSAVSAIPSFATNLSGQVASATSTVLSGSTASGSSATAAPSASASGASSMQSMASSLSGSAFSPSSMMPIASGNMTMPNMTSSASASSAASTATGVAGGAGSNSSSSCAPTSLPASATELPTTVPTGTVITGDYTGSYRPQVHYSPPKGFMNDPNGCHRDRNGTYHLYYQYNPLEYVAGNQHWGHATSDDLYHWTNQPIAIFPPNSTSQVFSGSAVLDPNNTSGFFPNTTDGVVAVYTLNTPTLQVQEVAYSTDGGYNFTPYENNPVLSVGSNQFRDPKVFWYEDHWVMAVAAANDFTIEIYTSPNLTSWTFASNFTHHGLLGLQYECPNLVQVPFQDDPSKSAWLMYISINPGAPLGGSVGQYFPGDFNGTHFVAYDSAARIADFAKDNYASQWFADTENGESISIAWASNWQYTQQVPTSAQAFRSAMSLPRRNYLTNITRLGWDLVSLPYDLSPVVGPSLLSSSEANSTADVDFTNVTSNAVWFSLNVTLPDAAIQNASLISADASINITFLPSTKCSSSSGSGSDSPAATLTYFYAGLTNGALALTRPAASSSWGAENPFFTDKFSYTLVDPLTSLVGVFDRSMLEVFVNEGAHSATMLVFPDSPVGSMKVATGGLPEGTQVNLQVNGLESTWQSS
notes: as for B1
B4: RdINV (Rhodotorula dairenensis; Q216T) (protein)
chain: APAASSLAGPVTTGVFSAVSAIPSFATNLSGQVASATSTVLSGSTASGSSATAAPSASASGASSMQSMASSLSGSAFSPSSMMPIASGNMTMPNMTSSASASSAASTATGVAGGAGSNSSSSCAPTSLPASATELPTTVPTGTVITGDYTGSYRPQVHYSPPKGFMNDPNGCHRDRNGTYHLYYQYNPLEYVAGNTHWGHATSDDLYHWTNQPIAIFPPNSTSQVFSGSAVLDPNNTSGFFPNTTDGVVAVYTLNTPTLQVQEVAYSTDGGYNFTPYENNPVLSVGSNQFRDPKVFWYEDHWVMAVAAANDFTIEIYTSPNLTSWTFASNFTHHGLLGLAYECPNLVQVPFQDDPSKSAWLMYISINPGAPLGGSVGQYFPGDFNGTHFVAYDSAARIADFAKDNYASQWFADTENGESISIAWASNWQYTQQVPTSAQAFRSAMSLPRRNYLTNITRLGWDLVSLPYDLSPVVGPSLLSSSEANSTADVDFTNVTSNAVWFSLNVTLPDAAIQNASLISADASINITFLPSTKCSSSSGSGSDSPAATLTYFYAGLTNGALALTRPAASSSWGAENPFFTDKFSYTLVDPLTSLVGVFDRSMLEVFVNEGAHSATMLVFPDSPVGSMKVATGGLPEGTQVNLQVNGLESTWQSS
notes: as for B1
B5: RdINV (Rhodotorula dairenensis) (protein)
chain: APAASSLAGPVTTGVFSAVSAIPSFATNLSGQVASATSTVLSGSTASGSSATAAPSASASGASSMQSMASSLSGSAFSPSSMMPIASGNMTMPNMTSSASASSAASTATGVAGGAGSNSSSSCAPTSLPASATELPTTVPTGTVITGDYTGSYRPQVHYSPPKGFMNDPNGCHRDRNGTYHLYYQYNPLEYVAGNQHWGHATSDDLYHWTNQPIAIFPPNSTSQVFSGSAVLDPNNTSGFFPNTTDGVVAVYTLNTPTLQVQEVAYSTDGGYNFTPYENNPVLSVGSNQFRDPKVFWYEDHWVMAVAAANDFTIEIYTSPNLTSWTFASNFTHHGLLGLAYECPNLVQVPFQDDPSKSAWLMYISINPGAPLGGSVGQYFPGDFNGTHFVAYDSAARIADFAKDNYASQWFADTENGESISIAWASNWQYTQQVPTSAQAFRSAMSLPRRNYLTNITRLGWDLVSLPYDLSPVVGPSLLSSSEANSTADVDFTNVTSNAVWFSLNVTLPDAAIQNASLISADASINITFLPSTKCSSSSGSGSDSPAATLTYFYAGLTNGALALTRPAASSSWGAENPFFTDKFSYTLVDPLTSLVGVFDRSMLEVFVNEGAHSATMLVFPDSPVGSMKVATGGLPEGTQVNLQVNGLESTWQSS
notes: as for B1
B6: RdINV (Rhodotorula dairenensis; Q216L) (protein)
chain: APAASSLAGPVTTGVFSAVSAIPSFATNLSGQVASATSTVLSGSTASGSSATAAPSASASGASSMQSMASSLSGSAFSPSSMMPIASGNMTMPNMTSSASASSAASTATGVAGGAGSNSSSSCAPTSLPASATELPTTVPTGTVITGDYTGSYRPQVHYSPPKGFMNDPNGCHRDRNGTYHLYYQYNPLEYVAGNLHWGHATSDDLYHWTNQPIAIFPPNSTSQVFSGSAVLDPNNTSGFFPNTTDGVVAVYTLNTPTLQVQEVAYSTDGGYNFTPYENNPVLSVGSNQFRDPKVFWYEDHWVMAVAAANDFTIEIYTSPNLTSWTFASNFTHHGLLGLAYECPNLVQVPFQDDPSKSAWLMYISINPGAPLGGSVGQYFPGDFNGTHFVAYDSAARIADFAKDNYASQWFADTENGESISIAWASNWQYTQQVPTSAQAFRSAMSLPRRNYLTNITRLGWDLVSLPYDLSPVVGPSLLSSSEANSTADVDFTNVTSNAVWFSLNVTLPDAAIQNASLISADASINITFLPSTKCSSSSGSGSDSPAATLTYFYAGLTNGALALTRPAASSSWGAENPFFTDKFSYTLVDPLTSLVGVFDRSMLEVFVNEGAHSATMLVFPDSPVGSMKVATGGLPEGTQVNLQVNGLESTWQSS
notes: as for B1
B7: RdINV (Rhodotorula dairenensis; N387T) (protein)
chain: APAASSLAGPVTTGVFSAVSAIPSFATNLSGQVASATSTVLSGSTASGSSATAAPSASASGASSMQSMASSLSGSAFSPSSMMPIASGNMTMPNMTSSASASSAASTATGVAGGAGSNSSSSCAPTSLPASATELPTTVPTGTVITGDYTGSYRPQVHYSPPKGFMNDPNGCHRDRNGTYHLYYQYNPLEYVAGNQHWGHATSDDLYHWTNQPIAIFPPNSTSQVFSGSAVLDPNNTSGFFPNTTDGVVAVYTLNTPTLQVQEVAYSTDGGYNFTPYENNPVLSVGSNQFRDPKVFWYEDHWVMAVAAANDFTIEIYTSPNLTSWTFASNFTHHGLLGLAYECPNLVQVPFQDDPSKSAWLMYISITPGAPLGGSVGQYFPGDFNGTHFVAYDSAARIADFAKDNYASQWFADTENGESISIAWASNWQYTQQVPTSAQAFRSAMSLPRRNYLTNITRLGWDLVSLPYDLSPVVGPSLLSSSEANSTADVDFTNVTSNAVWFSLNVTLPDAAIQNASLISADASINITFLPSTKCSSSSGSGSDSPAATLTYFYAGLTNGALALTRPAASSSWGAENPFFTDKFSYTLVDPLTSLVGVFDRSMLEVFVNEGAHSATMLVFPDSPVGSMKVATGGLPEGTQVNLQVNGLESTWQSS
notes: as for B1
B8: RdINV (Rhodotorula dairenensis; A360Q/N387T) (protein)
chain: APAASSLAGPVTTGVFSAVSAIPSFATNLSGQVASATSTVLSGSTASGSSATAAPSASASGASSMQSMASSLSGSAFSPSSMMPIASGNMTMPNMTSSASASSAASTATGVAGGAGSNSSSSCAPTSLPASATELPTTVPTGTVITGDYTGSYRPQVHYSPPKGFMNDPNGCHRDRNGTYHLYYQYNPLEYVAGNQHWGHATSDDLYHWTNQPIAIFPPNSTSQVFSGSAVLDPNNTSGFFPNTTDGVVAVYTLNTPTLQVQEVAYSTDGGYNFTPYENNPVLSVGSNQFRDPKVFWYEDHWVMAVAAANDFTIEIYTSPNLTSWTFASNFTHHGLLGLQYECPNLVQVPFQDDPSKSAWLMYISITPGAPLGGSVGQYFPGDFNGTHFVAYDSAARIADFAKDNYASQWFADTENGESISIAWASNWQYTQQVPTSAQAFRSAMSLPRRNYLTNITRLGWDLVSLPYDLSPVVGPSLLSSSEANSTADVDFTNVTSNAVWFSLNVTLPDAAIQNASLISADASINITFLPSTKCSSSSGSGSDSPAATLTYFYAGLTNGALALTRPAASSSWGAENPFFTDKFSYTLVDPLTSLVGVFDRSMLEVFVNEGAHSATMLVFPDSPVGSMKVATGGLPEGTQVNLQVNGLESTWQSS
notes: as for B1

Substrate in the data set: OC[C@H]1O[C@@](CO)(O[C@H]2O[C@H](CO)[C@@H](O)[C@H](O)[C@H]2O)[C@@H](O)[C@@H]1O
Put plainly: DNS reducing sugar assay, Michaelis-Menten fit. The data set is classed as biochemical, Rhodotorula dairenensis. The settings on record: 50 mM sodium phosphate pH 5.5, 60 °C, sucrose 1-200 mM. An excerpt:
DNS reducing sugar assay, Michaelis-Menten fit on RdINV
Turning to B1, the Km (as a rule, the substrate concentration at which the rate is half of its maximum) was 88 ± 9 mM; the kcat (as a rule, the maximal rate divided by the concentration of active sites) amounted to 10500 ± 329 s⁻¹; the kcat/Km (as a rule, the second-order rate constant that governs catalysis at low substrate concentration) is 120000 ± 4000 M⁻¹ s⁻¹.

In the case of B2, the Km is reported as 47 ± 3 mM, the kcat came out at 2720 ± 45 s⁻¹ and the catalytic efficiency (kcat/Km) came out at 58000 ± 3000 M⁻¹ s⁻¹.

As for B3, the Km is recorded as 15 ± 0.2 mM, the turnover number (kcat) turned out to be 3814 ± 16 s⁻¹ and the kcat/Km was 251000 ± 21000 M⁻¹ s⁻¹.

As for B4, the Km came out at 13 ± 1 mM, the kcat was 11500 ± 182 s⁻¹ and the kcat/Km stood at 864000 ± 39000 M⁻¹ s⁻¹.

B5: the Michaelis-Menten constant (Km) is listed as 5 ± 0.1 mM, the kcat was 4751 ± 25 s⁻¹ and the kcat/Km is 1.011e+06 ± 10000 M⁻¹ s⁻¹.

Turning to B6, the Km was 24 ± 1 mM, the kcat is 2324 ± 13 s⁻¹ and the kcat/Km was 98000 ± 3000 M⁻¹ s⁻¹.

Turning to B7, the Km worked out at 17 ± 0.8 mM, the kcat was 583 ± 5 s⁻¹ and the kcat/Km was 35000 ± 1000 M⁻¹ s⁻¹.

On to B8, for which the Km is 14 ± 0.6 mM, the kcat turned out to be 486 ± 4 s⁻¹ and the specificity constant (kcat/Km) worked out at 34000 ± 1000 M⁻¹ s⁻¹.
